The target in assay [1] is HLA-A*26:01. Briefly: IEDB peptide-MHC binding, purified MHC/direct/fluorescence; filed as Kd, often an IC50 or EC50 that approximates it; ≥ and ≤ were set here for values at or beyond the usual limits of such assays.
Assay [2] addresses HLA-A*31:01. The assay is described as above.
A further assay deals with HLA-B*27:05. The assay is described as above.
For a further assay, the target named is HLA-B*40:01. The assay is described as above.
A further assay concerns the target HLA-B*46:01. The assay is described as above.
The target in assay [3] is HLA-B*58:01. Described as above.
The target in the next assay is HLA-A*02:01. The description is as above.
The target in a further assay is HLA-B*44:02. Described as above. Conditions: source organism: Vibrio parahaemolyticus.
Assay [4] deals with HLA-A*01:01. Described as above.
Assay [5] has as its target HLA-B*15:01. Described as above.
In a further assay the target is HLA-B*08:02. The assay is described as above. Conditions: source organism: Vibrio parahaemolyticus RIMD 2210633.
For assay [6], the target named is HLA-B*18:01. Described as above.
A further assay concerns the target HLA-A*11:01. The description is as above.
The target in the next assay is HLA-A*69:01. The description is as above.
The target of assay [7] is HLA-A*03:01. The assay is described as above.
In the next assay the target is HLA-A*24:02. The assay is described as above. Conditions: source organism: Vibrio parahaemolyticus.
For a further assay, the target named is HLA-B*07:02. The assay is described as above.
Another assay deals with HLA-B*08:01. The assay can be described thus: IEDB peptide-MHC binding, purified MHC/competitive/fluorescence; filed as Kd, often an IC50 or EC50 that approximates it; ≥ and ≤ were set here for values at or beyond the usual limits of such assays.
Another assay deals with HLA-B*51:01. The description is as above. Conditions: source organism: Yersinia pestis Antiqua.
The target of a further assay is HLA-B*48:01. Briefly: IEDB peptide-MHC binding, purified MHC/direct/fluorescence; filed as Kd, often an IC50 or EC50 that approximates it; ≥ and ≤ were set here for values at or beyond the usual limits of such assays. Conditions: source organism: Camelpox virus M-96.
Another assay has as its target HLA-B*57:01. The assay is described as above. Conditions: source organism: Camelpox virus M-96.
A further assay addresses HLA-A*02:06. The assay can be described thus: IEDB peptide-MHC binding, purified MHC/competitive/fluorescence; filed as Kd, often an IC50 or EC50 that approximates it; ≥ and ≤ were set here for values at or beyond the usual limits of such assays. Conditions: source organism: Vaccinia virus WR.
For another assay, the target named is HLA-B*15:17. The assay is described as above. Conditions: source organism: Vaccinia virus WR.
For assay [8], the target named is HLA-B*15:01. Described as above.
Assay [9] has as its target HLA-B*18:01. The description is as above. Conditions: source organism: Vaccinia virus WR.
The target in a further assay is HLA-A*30:01. The assay is described as above. Conditions: source organism: Vaccinia virus WR.
Another assay addresses HLA-B*35:01. Described as above.
The next assay deals with HLA-A*68:02. The assay is described as above. Conditions: source organism: Vaccinia virus WR.
In assay [10] the target is HLA-A*31:01. Described as above. Conditions: source organism: Vaccinia virus WR.
Assay [11] addresses HLA-A*03:01. The assay is described as above.
The target in assay [12] is HLA-B*58:01. Described as above.
The target of assay [13] is HLA-A*26:01. The description is as above.
Assay [14] addresses HLA-A*01:01. The assay is described as above. Conditions: source organism: Salmonella enterica subsp. enterica serovar Typhi.
Where [15] appears, read: source organism: Vibrio parahaemolyticus.
Where [16] appears, read: source organism: Camelpox virus M-96.
[17] abbreviates: source organism: Shigella flexneri 5 str. 8401.
The mark [18] stands for this setting: source organism: Bacillus anthracis str. A2012.
The mark [19] stands for this setting: source organism: Salmonella enterica subsp. enterica serovar Typhi.
The mark [20] stands for this setting: source organism: Yersinia pestis Nepal516.

For orientation: Kd means the constant that tells how readily two partners part at equilibrium. A low value points to higher affinity.

In the case of ALSMGINTV, the Kd with HLA-A*26:01 [1] (source organism: Vibrio parahaemolyticus RIMD 2210633), with HLA-A*31:01 [2] (setting [15]), with HLA-B*27:05 (setting [15]), with HLA-B*40:01 (setting [15]), with HLA-B*46:01 (setting [15]) and in the assay with HLA-B*58:01 [3] (setting [15]) was no less than 20000 nM in each case. Also, the Kd with HLA-A*02:01 (setting [15]) is 35.6 nM; in the assay with HLA-B*44:02, no less than 20000 nM; with HLA-A*01:01 [4] (setting [15]) it was no less than 20000 nM; with HLA-B*15:01 [5] (setting [15]), no less than 20000 nM; with HLA-B*08:02 it was no less than 20000 nM; in the assay with HLA-B*18:01 [6] (setting [15]), no less than 20000 nM. Moreover, the Kd in the assay with HLA-A*11:01 (setting [15]) was no less than 20000 nM; with HLA-A*69:01 (setting [15]) it was 2000 nM; with HLA-A*03:01 [7] (setting [15]) it was no less than 20000 nM; in the assay with HLA-A*24:02, no less than 20000 nM; in the assay with HLA-B*07:02 (setting [15]), no less than 20000 nM; with HLA-B*08:01 (source organism: Vibrio parahaemolyticus K5030), no less than 20000 nM.
For the sequence EAKLFFQVI, the Kd in the assay with HLA-B*51:01 was 726 nM; in the assay with HLA-B*08:01 (source organism: Yersinia pestis Antiqua), 755 nM.
On to FVHTLLKTY, for which the Kd is no less than 20000 nM with HLA-B*48:01; 73.3 nM in the assay with HLA-A*26:01 [1] (setting [16]); no less than 20000 nM in the assay with HLA-B*57:01; no less than 20000 nM with HLA-A*31:01 [2] (setting [16]); no less than 20000 nM in the assay with HLA-B*27:05 (setting [16]); no less than 20000 nM with HLA-B*40:01 (setting [16]). Further, the Kd in the assay with HLA-B*58:01 [3] (setting [16]), in the assay with HLA-A*02:01 (setting [16]), in the assay with HLA-A*01:01 [4] (setting [16]), in the assay with HLA-A*11:01 (setting [16]), in the assay with HLA-A*69:01 (setting [16]) and with HLA-A*03:01 [7] (setting [16]) was no less than 20000 nM each time. Further, the Kd with HLA-A*02:06 was 2970 nM; with HLA-B*15:17 it was 55.4 nM; with HLA-B*15:01 [8] (source organism: Vaccinia virus WR), 308 nM; with HLA-B*18:01 [9] it was no less than 20000 nM; with HLA-A*30:01, no less than 20000 nM.
Take LMLADHPEY: the Kd with HLA-B*15:01 [5] (source organism: Mycobacterium tuberculosis) turned out to be 313 nM; in the assay with HLA-B*35:01 (source organism: Mycobacterium tuberculosis C) it was 18.6 nM.
In the case of LTFLHTLYK, the Kd in the assay with HLA-B*48:01, with HLA-B*57:01, in the assay with HLA-B*27:05 (setting [16]), with HLA-B*40:01 (setting [16]), in the assay with HLA-B*46:01 (setting [16]) and in the assay with HLA-B*58:01 [3] (setting [16]) was no less than 20000 nM throughout. The Kd with HLA-A*02:01 (setting [16]) is no less than 20000 nM; with HLA-A*01:01 [4] (setting [16]) it was no less than 20000 nM; in the assay with HLA-B*15:01 [5] (setting [16]) it was no less than 20000 nM; with HLA-B*18:01 [6] (setting [16]), no less than 20000 nM; with HLA-A*11:01 (setting [16]), 104 nM; with HLA-A*69:01 (setting [16]) it was no less than 20000 nM. Besides, the Kd was 160 nM in the assay with HLA-A*03:01 [7] (setting [16]); no less than 20000 nM with HLA-B*07:02 (setting [16]); 1090 nM with HLA-A*68:02; 224 nM with HLA-A*31:01 [10]; 1090 nM with HLA-A*02:06; 226 nM with HLA-B*15:17.
Take MFAAGLILY: the Kd with HLA-B*35:01 (setting [17]) is 1060 nM; in the assay with HLA-B*15:01 [8] (setting [17]), no less than 20000 nM; with HLA-A*03:01 [11] (setting [17]) it was no less than 20000 nM.
For MGMNAYFAY, the Kd in the assay with HLA-B*35:01 (setting [18]) was no more than 0.1 nM; with HLA-B*15:01 [8] (setting [18]) it was 61.2 nM.
VSFLISWSL registered a Kd with HLA-B*58:01 [12] (setting [18]) of 2610 nM.
Regarding VTIGNAYIY, the Kd in the assay with HLA-A*26:01 [13] (setting [19]) is 1050 nM; in the assay with HLA-B*58:01 [12] (setting [19]), 62.5 nM; in the assay with HLA-A*01:01 [14], 3500 nM; with HLA-A*03:01 [11] (setting [19]), no less than 20000 nM.
Consider VVNDFTVSY, for which the values for the Kd in the assay with HLA-A*26:01 [13] (setting [20]), with HLA-B*35:01 (setting [20]) and with HLA-A*03:01 [11] (setting [20]) were 225 nM, 3.5 nM and 122 nM, respectively.

The values above are taken from the Immune Epitope Database (IEDB).
